Data published in publication PMC4283134, “Nup98 FG domains from diverse species spontaneously phase-separate into particles with nuclear pore-like permselectivity” (eLife, 2015).

Legend:
[1] = target: Saccharomyces cerevisiae Nup100 FG domain (residues 2-580, purified) (S. cerevisiae) (UniProt Q02629); test: partitioning into FG particles (confocal laser-scanning microscopy); FG particles formed from 5 or 10 µM purified FG domain (with labelled tracer) by dilution from GuHCl into TBS; 1 µM fluorescent NTR or NTR⋅cargo complex or 3 µM passive probe added; images about 2-3 min later
[2] = target: Saccharomyces cerevisiae Nup116 FG domain (residues 1-736, FG bodies formed in E. coli) (S. cerevisiae) (UniProt Q02630); test: partitioning into FG bodies or inclusion bodies (confocal laser-scanning microscopy); crude FG bodies or actin inclusion bodies from E. coli, washed twice in TBS; 1 µM Impβ•IBB-GFP and MBP-mCherry added
[3] = target: Saccharomyces cerevisiae Nup100 FG domain (residues 1-580, FG bodies formed in E. coli) (S. cerevisiae) (UniProt Q02629); test: as above
[4] = target: Branchiostoma floridae Nup98 FG domain (Branchiostoma floridae); test: dynamic light scattering; FG domain diluted from stocks in 2 M GuHCl into TBS (50 mM Tris/HCl pH 7.5, 150 mM NaCl) to 10-0.06 µM; critical concentration of phase separation from the lowest concentration with particles, refined by the monomers that co-exist with particles
[5] = target: Tetrahymena thermophila macronuclear MacNup98A FG domain (Tetrahymena thermophila); test: as above
[6] = target: Trypanosoma brucei Nup158 FG domain (Trypanosoma brucei); test: as above
[7] = target: Dictyostelium discoideum Nup220 FG domain (Dictyostelium discoideum); test: as above
[8] = target: Branchiostoma floridae Nup98 FG domain, O-GlcNAc modified (Branchiostoma floridae); test: as above
human Importin β = target: T1, human Importin β (human, UniProt Q14974 1-876); test: pull-down; His-tagged FG domains (30 µg each) immobilised on 30 µl PEG-passivated Ni(II) chelate beads; 1 µM untagged human Importin β (400 µl), 2 hr at 4°C; 25 mM Tris/HCl pH 7.5, 100 mM NaCl, 1 mM MgCl2, 0.5% PEG4000, 5 mM DTT; SDS-PAGE/Coomassie; conditions: both partners purified
T1 construct: Importin β, human; also called HsImpβ; pICH005; source: E. coli (BLR or NEB Express), purified (native Ni(II) chelate chromatography, tag removed); not shown: His14, N-terminal, cleaved; scSUMO, N-terminal, cleaved
T1 sequence (Q14974 whole entry, the tested form may be a part): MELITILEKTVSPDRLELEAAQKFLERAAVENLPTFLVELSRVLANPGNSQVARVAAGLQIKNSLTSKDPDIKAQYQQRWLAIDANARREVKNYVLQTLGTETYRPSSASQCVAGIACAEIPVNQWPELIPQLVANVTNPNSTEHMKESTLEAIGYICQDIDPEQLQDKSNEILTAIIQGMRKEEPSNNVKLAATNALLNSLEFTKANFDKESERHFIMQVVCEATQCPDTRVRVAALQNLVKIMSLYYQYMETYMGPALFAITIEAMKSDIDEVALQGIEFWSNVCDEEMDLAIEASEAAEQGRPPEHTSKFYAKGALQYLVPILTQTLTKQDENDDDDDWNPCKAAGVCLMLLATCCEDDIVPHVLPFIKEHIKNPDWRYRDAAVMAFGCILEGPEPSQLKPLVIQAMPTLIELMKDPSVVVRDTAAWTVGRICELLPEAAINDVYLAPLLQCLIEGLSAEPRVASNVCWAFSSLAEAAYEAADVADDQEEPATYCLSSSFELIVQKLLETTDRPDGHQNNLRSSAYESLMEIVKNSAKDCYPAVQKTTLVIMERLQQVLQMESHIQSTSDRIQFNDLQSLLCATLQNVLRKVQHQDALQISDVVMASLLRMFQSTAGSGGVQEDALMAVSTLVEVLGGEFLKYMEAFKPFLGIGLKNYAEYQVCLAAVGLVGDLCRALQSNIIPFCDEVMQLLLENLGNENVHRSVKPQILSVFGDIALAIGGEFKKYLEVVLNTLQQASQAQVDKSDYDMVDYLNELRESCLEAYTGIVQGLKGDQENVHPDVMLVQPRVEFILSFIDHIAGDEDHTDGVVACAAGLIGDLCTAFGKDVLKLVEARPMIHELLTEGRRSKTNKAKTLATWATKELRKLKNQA

[9] = target: the molecule itself; test: dynamic light scattering; FG domain diluted from stocks in 2 M GuHCl into TBS (50 mM Tris/HCl pH 7.5, 150 mM NaCl) to 10-0.06 µM; critical concentration of phase separation from the lowest concentration with particles, refined by the monomers that co-exist with particles

Row | Molecule | binding result (human Importin β) | estimated critical concentration for phase separation (FG domain) [9] | also measured
1 | MBP-mCherry fusion |  |  | particle:buffer partition coefficient [1]: < 0.1
2 | Importin β⋅IBB-GFP complex (from UniProt Q06142 1-861; Q02821 2-63) |  |  | particle:buffer partition coefficient [1]: 220; particle:buffer partition coefficient [2]: 200; particle:buffer partition coefficient [3]: 200
3 | Branchiostoma floridae Nup98 FG domain (domain or fragment) |  |  | estimated critical concentration for phase separation (FG domain) [4]: 20 nM
4 | Tetrahymena thermophila macronuclear MacNup98A FG domain (domain or fragment) |  |  | estimated critical concentration for phase separation (FG domain) [5]: 25 nM
5 | Trypanosoma brucei Nup158 FG domain (domain or fragment) |  |  | estimated critical concentration for phase separation (FG domain) [6]: 300 nM
6 | Dictyostelium discoideum Nup220 FG domain (domain or fragment) |  |  | estimated critical concentration for phase separation (FG domain) [7]: 125 nM
7 | Branchiostoma floridae Nup98 FG domain, O-GlcNAc modified (domain or fragment) |  |  | estimated critical concentration for phase separation (FG domain) [8]: 150 nM
8 | Homo sapiens Nup98 FG domain (domain or fragment, human, Nup98 FG domain, human, residues 1-499; engineered C-terminal cysteine; In particle assays a few percent of the molecules carried a fluorescent tracer label; also called HsNup98 FG; HsNup98; source: E. coli (BLR or NEB Express), purified (Ni(II) chelate, denaturing conditions); not shown: His18, N-terminal, kept) MFNKSFGTPFGGGTGGFGTTSTFGQNTGFGTTSGGAFGTSAFGSSNNTGGLFGNSQTKPGGLFGTSSFSQPATSTSTGFGFGTSTGTANTLFGTASTGTSLFSSQNNAFAQNKPTGFGNFGTSTSSGGLFGTTNTTSNPFGSTSGSLFGPSSFTAAPTGTTIKFNPPTGTDTMVKAGVSTNISTKHQCITAMKEYESKSLEELRLEDYQANRKGPQNQVGAGTTTGLFGSSPATSSATGLFSSSTTNSGFAYGQNKTAFGTSTTGFGTNPGGLFGQQNQQTTSLFSKPFGQATTTQNTGFSFGNTSTIGQPSTNTMGLFGVTQASQPGGLFGTATNTSTGTAFGTGTGLFGQTNTGFGAVGSTLFGNNKLTTFGSSTTSAPSFGTTSGGLFGNKPTLTLGTNTNTSNFGFGTNTSGNSIFGSKPAPGTLGTGLGAGFGTALGAGQASLFGNNQPKIGGPLGTGAFGAPGFNTTTATLGFGAPQAPVALTDPNASAAQQAC | binds | ~25 nM | 
9 | Drosophila melanogaster Nup98 FG domain (domain or fragment, Nup98 FG domain, Drosophila melanogaster, residues 1-580; engineered C-terminal cysteine; In particle assays a few percent of the molecules carried a fluorescent tracer label; also called DmNup98 FG; DmNup98; source: E. coli (BLR or NEB Express), purified (Ni(II) chelate, denaturing conditions); not shown: His18, N-terminal, kept) MFGGAKPSFGATPAATSFGGFSGTTTTTPFGQSAFGKPAAPAFGNTSTFAAQPAQQSLFGAAATPAQPAGGLFGANTSTGFGSTATAQPTAFGAFSQPQQTSNIFGSTQTAASTSLFGQSTLPAFGAAKPTMTAFGQTAAAQPTGSLFGQPAAATSTTGFGGFGTSAPTTTNVFGSGTASAFAQPQATAVGASGVNTGTAVAKYQPTIGTDTLMKSGQANSVNTKQHCITAMKEFEGKSLEELRLEDYMCGRKGPQAGNAPGAFGFGAQVTQPAQPASGGLFGSTAQPSTGLFGQTVTENKSMFGTTAFGQQPATNNAFGAATQQNNFLQKPFGATTTTPFAAPAADASNPFGAKPAFGQGGSLFGQAPATSAAPAFGQTNTGFGGFGTTAGATQQSTLFGATPAADPNKSAFGLGTAASAATTGFGFGAPATSTAGGGLFGNKPATSFAAPTFGATSTASTPFSNFGLNTSTAATGGGLFNSGLNKPATSGFGGFGATSAAPLNFNAGNTGGSLFGNTAKPGGGLFGGGTTTLGGTGAAPTGGLFGGGTTSFGGVGGSLGGGGFGMGTNNSLTGGIMGAC | binds | ~200 nM | 
10 | Saccharomyces cerevisiae Nup116 FG domain without the GLEBS domain (domain or fragment, S. cerevisiae, Nup116 FG domain, S. cerevisiae, residues 2-109 joined to 167-715 (GLEBS domain deleted); engineered C-terminal cysteine; In particle assays a few percent of the molecules carried a fluorescent tracer label; also called ScNup116_(ΔGLEBS) FG; ScNup116; source: E. coli (BLR or NEB Express), purified (Ni(II) chelate, denaturing conditions); not shown: His18, N-terminal, kept) FGVSRGAFPSATTQPFGSTGSTFGGQQQQQQPVANTSAFGLSQQTNTTQAPAFGNFGNQTSNSPFGMSGSTTANGTPFGQSQLTNNNASGSIFGGMGNNTALSAGSASFGTSQNGTGTTFNNPQGTTNTGFGIMGNNNSTTSATTGGLFGQKPATGMFGTGTGSGGGFGSGATNSTGLFGSSTNLSGNSAFGANKPATSGGLFGNTTNNPTNGTNNTGLFGQQNSNTNGGLFGQQQNSFGANNVSNGGAFGQVNRGAFPQQQTQQGSGGIFGQSNANANGGAFGQQQGTGALFGAKPASGGLFGQSAGSKAFGMNTNPTGTTGGLFGQTNQQQSGGGLFGQQQNSNAGGLFGQNNQSQNQSGLFGQQNSSNAFGQPQQQGGLFGSKPAGGLFGQQQGASTFASGNAQNNSIFGQNNQQQQSTGGLFGQQNNQSQSQPGGLFGQTNQNNNQPFGQNGLQQPQQNNSLFGAKPTGFGNTSLFSNSTTNQSNGISGNNLQQQSGGLFQNKQQPASGGLFGSKPSNTVGGGLFGNNQVANQNNPASTSGGLFGSKPATGSLFGGTNSTAPNASSGGIFGSNNASNTAATTNSTGLFGNKPVGAGASTSAGGLFGNNNNSSLNNSNGSTGLFGSNNTSQSTNAGGLFQNNTSTNTSGGGLFSC |  | ~700 nM | 
11 | Caenorhabditis elegans NPP-10/Nup98 FG domain (domain or fragment, NPP-10/Nup98 FG domain, Caenorhabditis elegans, residues 1-493; engineered C-terminal cysteine; In particle assays a few percent of the molecules carried a fluorescent tracer label; also called CeNup98 FG; CeNup98; source: E. coli (BLR or NEB Express), purified (Ni(II) chelate, denaturing conditions); not shown: His18, N-terminal, kept) MFGQNKSFGSSSFGGGSSGSGLFGQNNQNNQNKGLFGQPANNSGTTGLFGAAQNKPAGSIFGAASNTSSIFGSPQQPQNNQSSLFGGGQNNANRSIFGSTSSAAPASSSLFGNNANNTGTSSIFGSNNNAPSGGGLFGASTVSGTTVKFEPPISSDTMMRNGTTQTISTKHMCISAMSKYDGKSIEELRVEDYIANRKAPGTGTTSTGGGLFGASNTTNQAGSSGLFGSSNAQQKTSLFGGASTSSPFGGNTSTANTGSSLFGNNNANTSAASGSLFGAKPAGSSLFGSTATTGASTFGQTTGSSLFGNQQPQTNTGGSLFGNTQNQNQSGSLFGNTGTTGTGLFGQAQQQPQQQSSGFSFGGAPAATNAFGQPAAANTGGSLFGNTSTANTGSSLFGAKPATSTGFTFGATQPTTTNAFGSTNTGGGLFGNNAAKPGGLFGNTTNTGTGGGLFGSQPQASSGGLFGSNTQATQPLNTGFGNLAQPQIVMQQQC | binds | ~700 nM | 
12 | Saccharomyces cerevisiae Nup100 FG domain (residues 2-580, purified) (domain or fragment, S. cerevisiae, Nup100 FG domain, S. cerevisiae, residues 2-580; engineered C-terminal cysteine; In particle assays a few percent of the molecules carried a label (Atto390, Atto488 or Alexa488); also called ScNup100 FG; ScNup100; source: E. coli (BLR or NEB Express), purified (Ni(II) chelate, denaturing conditions); not shown: His18, N-terminal, kept) FGNNRPMFGGSNLSFGSNTSSFGGQQSQQPNSLFGNSNNNNNSTSNNAQSGFGGFTSAAGSNSNSLFGNNNTQNNGAFGQSMGATQNSPFGSLNSSNASNGNTFGGSSSMGSFGGNTNNAFNNNSNSTNSPFGFNKPNTGGTLFGSQNNNSAGTSSLFGGQSTSTTGTFGNTGSSFGTGLNGNGSNIFGAGNNSQSNTTGSLFGNQQSSAFGTNNQQGSLFGQQSQNTNNAFGNQNQLGGSSFGSKPVGSGSLFGQSNNTLGNTTNNRNGLFGQMNSSNQGSSNSGLFGQNSMNSSTQGVFGQNNNQMQINGNNNNSLFGKANTFSNSASGGLFGQNNQQQGSGLFGQNSQTSGSSGLFGQNNQKQPNTFTQSNTGIGLFGQNNNQQQQSTGLFGAKPAGTTGSLFGGNSSTQPNSLFGTTNVPTSNTQSQQGNSLFGATKLTNMPFGGNPTANQSGSGNSLFGTKPASTTGSLFGNNTASTTVPSTNGLFGNNANNSTSTTNTGLFGAKPDSQSKPALGGGLFGNSNSNSSTIGQNKPVFGGTTQNTGLFGATGTNSSAVGSTGKLFGQNNNTLNVGTC | binds | ~175 nM | 
13 | Arabidopsis thaliana Nup98B FG domain (domain or fragment, Nup98B FG domain, Arabidopsis thaliana, residues 1-668; engineered C-terminal cysteine; In particle assays a few percent of the molecules carried a fluorescent tracer label; also called AtNup98B FG; AtNup98B; source: E. coli (BLR or NEB Express), purified (Ni(II) chelate, denaturing conditions); not shown: His14 (with TEV site), N-terminal, kept) MFGSSNNNPFGQSSISSPFGTQTHSLFGQTNNNASNNPFATKPFGTSTPFGAQTGSSMFGGTSTGVFGAPQTSSPFGASPQAFGSSTQAFGASSTPSFGSSNSPFGGTSTFGQKSFGLSTPQSSPFGSTTQQSQPAFGNSTFGSSTPFGASTTPAFGASSTPAFGVSNTSGFGATNTPGFGATNTTGFGGSSTPGFGASSTPAFGSTNTPAFGASSTPLFGSSSSPAFGASPAPAFGSSGNAFGNNTFSSGGAFGSSSTPTFGASNTSAFGASSSPSFNFGSSPAFGQSTSAFGSSSFGSTQSSLGSTPSPFGAQGAQASTSTFGGQSTIGGQQGGSRVIPYAPTTDTASGTESKSERLQSISAMPAHKGKNMEELRWEDYQRGDKGGQRSTGQSPEGAGFGVTNSQPSIFSTSPAFSQTPVNPTNPFSQTTPTSNTNFSPSFSQPTTPSFGQPTTPSFRSTVSNTTSVFGSSSSLTTNTSQPLGSSIFGSTPAHGSTPGFSIGGFNNSQSSPLFGSNPSFAQNTTPAFSQTSPLFGQNTTPALGQSSSVFGQNTNPALVQSNTFSTPSTGFGNTFSSSSSLTTSISPFGQITPAVTPFQSAQPTQPLGAFGFNNFGQTQIANTTDIAGAMGTFSQGNFKQQPALGNSAVMQPTPVTNPFGTLPALPQC | binds | ~25 nM | 
